From the supplement of paper PMC9112550, “Optimization of the antimicrobial peptide Bac7 by deep mutational scanning” (BMC Biology, 2022)

Tested on: Escherichia coli TOP10
Assay: shrunken log2 fold change of peptide-encoding DNA abundance (4.5 h post-induction vs induction); higher = less antimicrobial activity (less host growth inhibition)
Conditions: time post-induction: 4.5 h; library: site-saturation at positions 5, 18, 19, 20
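Further: peptides expressed intracellularly from a pBAD plasmid library in pooled LB shake-flask culture, induced with 0.3% L-arabinose, DNA abundance read by NGS, three biological replicates, DESeq2 with apeglm shrinkage.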

RRIRRRPPRLPRPRPRPCMHPRP
shrunken log2 fold change: 0.105

RRIRERPPRLPRPRPRPCNPPRP
shrunken log2 fold change: -0.442

RRIRLRPPRLPRPRPRPCKVPRP
shrunken log2 fold change: 0.00893

RRIRTRPPRLPRPRPRPKALPRP
shrunken log2 fold change: 0.293

RRIRKRPPRLPRPRPRPDAIPRP
shrunken log2 fold change: 0.889

RRIRTRPPRLPRPRPRPCSQPRP
shrunken log2 fold change: -0.018

RRIRYRPPRLPRPRPRPGRYPRP
shrunken log2 fold change: -0.912

RRIRQRPPRLPRPRPRPKCDPRP
shrunken log2 fold change: 0.151

RRIRARPPRLPRPRPRPFGQPRP
shrunken log2 fold change: -0.0155

RRIRTRPPRLPRPRPRPFAPPRP
shrunken log2 fold change: 0.163

RRIRIRPPRLPRPRPRPRMAPRP
shrunken log2 fold change: 0.0331

RRIRHRPPRLPRPRPRPAHDPRP
shrunken log2 fold change: 0.0776

RRIRPRPPRLPRPRPRPSDTPRP
shrunken log2 fold change: -0.29

RRIRMRPPRLPRPRPRPLRHPRP
shrunken log2 fold change: 1.98

RRIRGRPPRLPRPRPRPQHEPRP
shrunken log2 fold change: 0.0159

RRIRGRPPRLPRPRPRPDCAPRP
shrunken log2 fold change: 1.53

RRIRSRPPRLPRPRPRPIETPRP
shrunken log2 fold change: -0.29

RRIRKRPPRLPRPRPRPPEMPRP
shrunken log2 fold change: 0.262

RRIRIRPPRLPRPRPRPHRYPRP
shrunken log2 fold change: -0.171

RRIRFRPPRLPRPRPRPCHSPRP
shrunken log2 fold change: -0.0231

RRIRQRPPRLPRPRPRPIVGPRP
shrunken log2 fold change: 0.0288

RRIRKRPPRLPRPRPRPANVPRP
shrunken log2 fold change: -0.196

RRIRMRPPRLPRPRPRPLGSPRP
shrunken log2 fold change: 0.169

RRIRHRPPRLPRPRPRPTWEPRP
shrunken log2 fold change: 0.0143

RRIRGRPPRLPRPRPRPQTWPRP
shrunken log2 fold change: 0.0175

RRIRRRPPRLPRPRPRPGYEPRP
shrunken log2 fold change: 0.0872

RRIRGRPPRLPRPRPRPKTPPRP
shrunken log2 fold change: 1.73

RRIRWRPPRLPRPRPRPNRDPRP
shrunken log2 fold change: -0.00925

RRIRVRPPRLPRPRPRPTRVPRP
shrunken log2 fold change: 0.0936

RRIRARPPRLPRPRPRPRSNPRP
shrunken log2 fold change: 0.0752

RRIRSRPPRLPRPRPRPVELPRP
shrunken log2 fold change: 0.105

RRIRCRPPRLPRPRPRPCVFPRP
shrunken log2 fold change: -0.0388

RRIRVRPPRLPRPRPRPKDHPRP
shrunken log2 fold change: -0.308

RRIRTRPPRLPRPRPRPPTQPRP
shrunken log2 fold change: 0.282

RRIRTRPPRLPRPRPRPFKEPRP
shrunken log2 fold change: -0.125

RRIRLRPPRLPRPRPRPRHQPRP
shrunken log2 fold change: -0.254

RRIRNRPPRLPRPRPRPYSFPRP
shrunken log2 fold change: -1.01

RRIRARPPRLPRPRPRPCKAPRP
shrunken log2 fold change: 0.125

RRIRVRPPRLPRPRPRPACKPRP
shrunken log2 fold change: -0.0847

RRIRQRPPRLPRPRPRPCDMPRP
shrunken log2 fold change: -0.129

RRIRDRPPRLPRPRPRPHAVPRP
shrunken log2 fold change: 0.163

RRIRRRPPRLPRPRPRPAQKPRP
shrunken log2 fold change: 0.547

RRIRKRPPRLPRPRPRPVKAPRP
shrunken log2 fold change: -0.0242

RRIRVRPPRLPRPRPRPPFVPRP
shrunken log2 fold change: 0.0393

RRIRVRPPRLPRPRPRPCDAPRP
shrunken log2 fold change: 0.121

RRIRDRPPRLPRPRPRPPCHPRP
shrunken log2 fold change: -0.363

RRIRVRPPRLPRPRPRPPMKPRP
shrunken log2 fold change: -0.117

RRIRDRPPRLPRPRPRPKVWPRP
shrunken log2 fold change: 0.437

RRIRMRPPRLPRPRPRPSGIPRP
shrunken log2 fold change: 0.0258

RRIRERPPRLPRPRPRPLYAPRP
shrunken log2 fold change: -0.101

RRIRARPPRLPRPRPRPVHMPRP
shrunken log2 fold change: -0.00775

RRIRIRPPRLPRPRPRPLLRPRP
shrunken log2 fold change: -0.239

RRIRSRPPRLPRPRPRPGEGPRP
shrunken log2 fold change: 0.367

RRIRGRPPRLPRPRPRPRIEPRP
shrunken log2 fold change: 0.249

RRIRTRPPRLPRPRPRPLKMPRP
shrunken log2 fold change: -0.0458

RRIRNRPPRLPRPRPRPSAHPRP
shrunken log2 fold change: -0.0549

RRIRVRPPRLPRPRPRPAPNPRP
shrunken log2 fold change: 0.334

RRIRCRPPRLPRPRPRPHDPPRP
shrunken log2 fold change: 0.286

RRIRVRPPRLPRPRPRPMPMPRP
shrunken log2 fold change: 0.0529

RRIRERPPRLPRPRPRPLQDPRP
shrunken log2 fold change: -0.133

RRIRKRPPRLPRPRPRPGNSPRP
shrunken log2 fold change: -0.0266

RRIRWRPPRLPRPRPRPAHSPRP
shrunken log2 fold change: 0.321

RRIRSRPPRLPRPRPRPICSPRP
shrunken log2 fold change: 0.119

RRIRVRPPRLPRPRPRPLNAPRP
shrunken log2 fold change: -0.331

RRIRDRPPRLPRPRPRPAFRPRP
shrunken log2 fold change: 0.293

RRIRTRPPRLPRPRPRPPCIPRP
shrunken log2 fold change: 0.00685

RRIRWRPPRLPRPRPRPWWLPRP
shrunken log2 fold change: 0.162

RRIRGRPPRLPRPRPRPKIFPRP
shrunken log2 fold change: 0.288

RRIRKRPPRLPRPRPRPISTPRP
shrunken log2 fold change: -0.218

RRIRYRPPRLPRPRPRPYLCPRP
shrunken log2 fold change: -1.35

RRIRARPPRLPRPRPRPMGGPRP
shrunken log2 fold change: 0.0776

RRIRPRPPRLPRPRPRPHCTPRP
shrunken log2 fold change: -0.479

RRIRCRPPRLPRPRPRPQFFPRP
shrunken log2 fold change: -0.433

RRIRPRPPRLPRPRPRPWFSPRP
shrunken log2 fold change: -0.255

RRIRSRPPRLPRPRPRPSNTPRP
shrunken log2 fold change: -0.748

RRIRIRPPRLPRPRPRPVAMPRP
shrunken log2 fold change: -0.0657

RRIRNRPPRLPRPRPRPLQAPRP
shrunken log2 fold change: -0.0119

RRIRKRPPRLPRPRPRPPTSPRP
shrunken log2 fold change: 0.146

RRIRPRPPRLPRPRPRPVSHPRP
shrunken log2 fold change: 0.208

RRIRCRPPRLPRPRPRPHCYPRP
shrunken log2 fold change: -0.135

RRIRVRPPRLPRPRPRPACDPRP
shrunken log2 fold change: 0.284

RRIRLRPPRLPRPRPRPRPSPRP
shrunken log2 fold change: 0.435

RRIRERPPRLPRPRPRPAIWPRP
shrunken log2 fold change: 0.129

RRIRDRPPRLPRPRPRPEVKPRP
shrunken log2 fold change: -0.0257

RRIRMRPPRLPRPRPRPEQGPRP
shrunken log2 fold change: 0.493

RRIRYRPPRLPRPRPRPVTMPRP
shrunken log2 fold change: -0.688

RRIRCRPPRLPRPRPRPKPGPRP
shrunken log2 fold change: 0.503

RRIRSRPPRLPRPRPRPDVCPRP
shrunken log2 fold change: 0.0421

RRIRFRPPRLPRPRPRPWKKPRP
shrunken log2 fold change: -0.00973

RRIRKRPPRLPRPRPRPGQHPRP
shrunken log2 fold change: -0.000613

RRIRTRPPRLPRPRPRPQWHPRP
shrunken log2 fold change: -0.461
